Biological target: T1, PUF4 RNA-binding domain (Saccharomyces cerevisiae, UniProt P25339 537-888)
T1 sequence: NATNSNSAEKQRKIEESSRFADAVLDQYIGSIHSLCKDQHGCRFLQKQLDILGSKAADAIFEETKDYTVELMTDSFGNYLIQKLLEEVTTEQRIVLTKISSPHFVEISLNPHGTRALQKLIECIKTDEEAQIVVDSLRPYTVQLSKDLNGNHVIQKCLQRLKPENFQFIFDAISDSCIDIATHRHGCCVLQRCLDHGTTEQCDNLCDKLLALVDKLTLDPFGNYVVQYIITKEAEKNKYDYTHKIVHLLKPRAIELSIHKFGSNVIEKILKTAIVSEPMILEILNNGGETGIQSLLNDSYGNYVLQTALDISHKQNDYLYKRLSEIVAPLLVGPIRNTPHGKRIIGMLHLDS
Assay: Mg; RNA-MaP; 20 mM Na-HEPES pH 7.4, 30 mM KOAc, 0.75 mM MgCl2, 0.1% Tween-20, 5% glycerol, 0.1 mg/mL BSA, 2 mM DTT; 25 C; 0.0125-409.6 nM protein
Settings: tags: N-His6-TEV cleaved; C-SNAP kept, Cy3B-labelled; label: tethered on chip by stalled RNA polymerase

UCUCUUUGUAGCCAUUCUCUU (ssRNA) [Ic_S1_P4E.1_K4.1_C4.1_H4.1_A4.1_[T5G]_[A6C]_[T7C]_F4.1_[T8A]_[A9T]_T4.1]
Kd: 1890 nM

UCUCUUUGUAUUCGUCUCUU (ssRNA) [Ic_S1_P3E.1_K3.1_C3.1_H3.1_A3.1_[A6T]_F3.1_[T7C]_[A8G]_T3.1]
Kd: 523 nM

UCUCUUUGUAUGAUUCUCUU (ssRNA) [Ic_S1_P3E.1_K3.1_C3.1_H3.1_A3.1_[A6G]_F3.1_[T7A]_[A8T]_T3.1]
Kd: 42.2 nM

UCUCUUUGUAAAAGUCUCUU (ssRNA) [Ic_S1_P3E.1_K3.1_C3.1_H3.1_A3.1_[T5A]_F3.1_[T7A]_[A8G]_T3.1]
Kd: 822 nM

UCUCUUUGUAUCACUCUCUU (ssRNA) [Ic_S1_P3E.1_K3.1_C3.1_H3.1_A3.1_[A6C]_F3.1_[T7A]_[A8C]_T3.1]
Kd: 127 nM

UCUCUUUGUAUGCCUCUCUU (ssRNA) [Ic_S1_P3E.1_K3.1_C3.1_H3.1_A3.1_[A6G]_F3.1_[T7C]_[A8C]_T3.1]
Kd: 1720 nM

UCUCUUUGUAAAGCUCUCUU (ssRNA) [Ic_S1_P3E.1_K3.1_C3.1_H3.1_A3.1_[T5A]_F3.1_[T7G]_[A8C]_T3.1]
Kd: 1000 nM

UCUCUUUGUAAUAAUCUCUU (ssRNA) [Ic_S1_P3E.1_K3.1_C3.1_H3.1_A3.1_[T5A]_[A6T]_F3.1_[T7A]_T3.1]
Kd: 146 nM

UCUCUUUGUAUCCCUCUCUU (ssRNA) [Ic_S1_P3E.1_K3.1_C3.1_H3.1_A3.1_[A6C]_F3.1_[T7C]_[A8C]_T3.1]
Kd: 531 nM

UCUCUUUGUAGCCCGUCUCUU (ssRNA) [Ic_S1_P4E.1_K4.1_C4.1_H4.1_A4.1_[T5G]_[A6C]_[T7C]_F4.1_[T8C]_[A9G]_T4.1]
Kd: > 2300 nM

UCUCUUUGUAGCCGGUCUCUU (ssRNA) [Ic_S1_P4E.1_K4.1_C4.1_H4.1_A4.1_[T5G]_[A6C]_[T7C]_F4.1_[T8G]_[A9G]_T4.1]
Kd: > 2300 nM

UCUCUUUGUAAAGUUCUCUU (ssRNA) [Ic_S1_P3E.1_K3.1_C3.1_H3.1_A3.1_[T5A]_F3.1_[T7G]_[A8T]_T3.1]
Kd: 135 nM

UCUCUUUGUAAUUCUCUCUU (ssRNA) [Ic_S1_P3E.1_K3.1_C3.1_H3.1_A3.1_[T5A]_[A6T]_F3.1_[A8C]_T3.1]
Kd: 477 nM

UCUCUUUGUAGCGUUUCUCUU (ssRNA) [Ic_S1_P4E.1_K4.1_C4.1_H4.1_A4.1_[T5G]_[A6C]_[T7G]_F4.1_[A9T]_T4.1]
Kd: 964 nM

UCUCUUUGUAUCGCUCUCUU (ssRNA) [Ic_S1_P3E.1_K3.1_C3.1_H3.1_A3.1_[A6C]_F3.1_[T7G]_[A8C]_T3.1]
Kd: 859 nM

UCUCUUUGUAUAGUUCUCUU (ssRNA) [Ic_S1_P3E.1_K3.1_C3.1_H3.1_A3.1_F3.1_[T7G]_[A8T]_T3.1]
Kd: 11 nM

UCUCUUUGUAUGGCUCUCUU (ssRNA) [Ic_S1_P3E.1_K3.1_C3.1_H3.1_A3.1_[A6G]_F3.1_[T7G]_[A8C]_T3.1]
Kd: 1730 nM

UCUCUUUGUAUCGGUCUCUU (ssRNA) [Ic_S1_P3E.1_K3.1_C3.1_H3.1_A3.1_[A6C]_F3.1_[T7G]_[A8G]_T3.1]
Kd: 1940 nM

UCUCUUUGUAUGCUUCUCUU (ssRNA) [Ic_S1_P3E.1_K3.1_C3.1_H3.1_A3.1_[A6G]_F3.1_[T7C]_[A8T]_T3.1]
Kd: 434 nM

UCUCUUUGUAUGACUCUCUU (ssRNA) [Ic_S1_P3E.1_K3.1_C3.1_H3.1_A3.1_[A6G]_F3.1_[T7A]_[A8C]_T3.1]
Kd: 1070 nM

UCUCUUUGUAAAACUCUCUU (ssRNA) [Ic_S1_P3E.1_K3.1_C3.1_H3.1_A3.1_[T5A]_F3.1_[T7A]_[A8C]_T3.1]
Kd: 369 nM

UCUCUUUGUAUUAUUCUCUU (ssRNA) [Ic_S1_P3E.1_K3.1_C3.1_H3.1_A3.1_[A6T]_F3.1_[T7A]_[A8T]_T3.1]
Kd: 14.5 nM

UCUCUUUGUAAUCAUCUCUU (ssRNA) [Ic_S1_P3E.1_K3.1_C3.1_H3.1_A3.1_[T5A]_[A6T]_F3.1_[T7C]_T3.1]
Kd: 758 nM

UCUCUUUGUAUUCUUCUCUU (ssRNA) [Ic_S1_P3E.1_K3.1_C3.1_H3.1_A3.1_[A6T]_F3.1_[T7C]_[A8T]_T3.1]
Kd: 32.5 nM

UCUCUUUGUAAACUUCUCUU (ssRNA) [Ic_S1_P3E.1_K3.1_C3.1_H3.1_A3.1_[T5A]_F3.1_[T7C]_[A8T]_T3.1]
Kd: 24 nM

UCUCUUUGUAUCGUUCUCUU (ssRNA) [Ic_S1_P3E.1_K3.1_C3.1_H3.1_A3.1_[A6C]_F3.1_[T7G]_[A8T]_T3.1]
Kd: 326 nM

UCUCUUUGUAUACGUCUCUU (ssRNA) [Ic_S1_P3E.1_K3.1_C3.1_H3.1_A3.1_F3.1_[T7C]_[A8G]_T3.1]
Kd: 82 nM

UCUCUUUGUAUAGCUCUCUU (ssRNA) [Ic_S1_P3E.1_K3.1_C3.1_H3.1_A3.1_F3.1_[T7G]_[A8C]_T3.1]
Kd: 82.1 nM

UCUCUUUGUAAUACUCUCUU (ssRNA) [Ic_S1_P3E.1_K3.1_C3.1_H3.1_A3.1_[T5A]_[A6T]_F3.1_[T7A]_[A8C]_T3.1]
Kd: 560 nM

UCUCUUUGUAUUGUUCUCUU (ssRNA) [Ic_S1_P3E.1_K3.1_C3.1_H3.1_A3.1_[A6T]_F3.1_[T7G]_[A8T]_T3.1]
Kd: 38.1 nM

UCUCUUUGUAUUCCUCUCUU (ssRNA) [Ic_S1_P3E.1_K3.1_C3.1_H3.1_A3.1_[A6T]_F3.1_[T7C]_[A8C]_T3.1]
Kd: 113 nM

UCUCUUUGUAAACCUCUCUU (ssRNA) [Ic_S1_P3E.1_K3.1_C3.1_H3.1_A3.1_[T5A]_F3.1_[T7C]_[A8C]_T3.1]
Kd: 568 nM

UCUCUUUGUAUUACUCUCUU (ssRNA) [Ic_S1_P3E.1_K3.1_C3.1_H3.1_A3.1_[A6T]_F3.1_[T7A]_[A8C]_T3.1]
Kd: 167 nM

UCUCUUUGUAAUUGUCUCUU (ssRNA) [Ic_S1_P3E.1_K3.1_C3.1_H3.1_A3.1_[T5A]_[A6T]_F3.1_[A8G]_T3.1]
Kd: 352 nM

UCUCUUUGUAGCGUCUCUCUU (ssRNA) [Ic_S1_P4E.1_K4.1_C4.1_H4.1_A4.1_[T5G]_[A6C]_[T7G]_F4.1_[A9C]_T4.1]
Kd: 1710 nM

UCUCUUUGUAUCCUUCUCUU (ssRNA) [Ic_S1_P3E.1_K3.1_C3.1_H3.1_A3.1_[A6C]_F3.1_[T7C]_[A8T]_T3.1]
Kd: 39.8 nM

UCUCUUUGUAUUAGUCUCUU (ssRNA) [Ic_S1_P3E.1_K3.1_C3.1_H3.1_A3.1_[A6T]_F3.1_[T7A]_[A8G]_T3.1]
Kd: 349 nM

UCUCUUUGUAGCCACUCUCUU (ssRNA) [Ic_S1_P4E.1_K4.1_C4.1_H4.1_A4.1_[T5G]_[A6C]_[T7C]_F4.1_[T8A]_[A9C]_T4.1]
Kd: > 2300 nM

UCUCUUUGUAUAUAUCUCUU (ssRNA) [If_S1_P3E.1_K3.1_C3.1_H3.1_A3.1_F3.1_T3.1]
Kd: 4.91 nM

UCUCUUUGUAGCGUGUCUCUU (ssRNA) [Ic_S1_P4E.1_K4.1_C4.1_H4.1_A4.1_[T5G]_[A6C]_[T7G]_F4.1_[A9G]_T4.1]
Kd: 2000 nM

UCUCUUUGUAGCCCUUCUCUU (ssRNA) [Ic_S1_P4E.1_K4.1_C4.1_H4.1_A4.1_[T5G]_[A6C]_[T7C]_F4.1_[T8C]_[A9T]_T4.1]
Kd: > 2300 nM

UCUCUUUGUAUUGGUCUCUU (ssRNA) [Ic_S1_P3E.1_K3.1_C3.1_H3.1_A3.1_[A6T]_F3.1_[T7G]_[A8G]_T3.1]
Kd: 1360 nM

UCUCUUUGUAGCCGUUCUCUU (ssRNA) [Ic_S1_P4E.1_K4.1_C4.1_H4.1_A4.1_[T5G]_[A6C]_[T7C]_F4.1_[T8G]_[A9T]_T4.1]
Kd: > 2300 nM

UCUCUUUGUAUGGUUCUCUU (ssRNA) [Ic_S1_P3E.1_K3.1_C3.1_H3.1_A3.1_[A6G]_F3.1_[T7G]_[A8T]_T3.1]
Kd: 509 nM

UCUCUUUGUAAUUUUCUCUU (ssRNA) [Ic_S1_P3E.1_K3.1_C3.1_H3.1_A3.1_[T5A]_[A6T]_F3.1_[A8T]_T3.1]
Kd: 34 nM

UCUCUUUGUAAUAGUCUCUU (ssRNA) [Ic_S1_P3E.1_K3.1_C3.1_H3.1_A3.1_[T5A]_[A6T]_F3.1_[T7A]_[A8G]_T3.1]
Kd: 645 nM

UCUCUUUGUAUCAGUCUCUU (ssRNA) [Ic_S1_P3E.1_K3.1_C3.1_H3.1_A3.1_[A6C]_F3.1_[T7A]_[A8G]_T3.1]
Kd: 483 nM

B1: Ia_S4_P5E.1_K5.1_C5.1_H5.1_A5.1_[T6A]_F5.1_T5.1 (ssRNA)
RNA: UUUGACAACUGAUCGUUCUUUCUUGUAUAAUUAUUCUUUCUCGAUCAGUUGUCUUU
Kd: 4.42 nM

B2: Ia_S4_P5E.1_K5.1_C5.1_H5.1_A5.1_[A7C]_F5.1_T5.1 (ssRNA)
RNA: UUUGACAACUGAUCGUUCUUUCUUGUAUUCUUAUUCUUUCUCGAUCAGUUGUCUUU
Kd: 5.51 nM

UCUCUUUGUAGCCGAUCUCUU (ssRNA) [Ic_S1_P4E.1_K4.1_C4.1_H4.1_A4.1_[T5G]_[A6C]_[T7C]_F4.1_[T8G]_T4.1]
Kd: > 2300 nM

Source: PMC9352680, “A comprehensive thermodynamic model for RNA binding by the Saccharomyces cerevisiae Pumilio protein PUF4”
